Consider one protein from PMC8118686, “Identification of a RAD52 Inhibitor Inducing Synthetic Lethality in BRCA2-Deficient Cancer Cells” (Frontiers in Pharmacology, 2021).

This series concerns the molecule itself. Put plainly: cross-linking; called EMSA by the paper: 1 uM 6His-RAD52 in 25 mM HEPES pH 7.5, 1 mM DTT, 10 mM MgCl2, 150 mM NaCl, 0.1 mg/ml BSA, 37 °C; with or without 400 uM 50-nt ssDNA oligo and 100 uM C791-0064; 0.1% glutaraldehyde 3 min; 4-20% SDS-PAGE, Western blot with anti-Histag. (In general: Mobility shift assays separate free from complexed probe on a gel.)

B1: Human 6His-RAD52 protein (natural protein, UniProt P43351 1-418, looked up)
chain: MSGTEEAILGGRDSHPAAGGGSVLCFGQCQYTAEEYQAIQKALRQRLGPEYISSRMAGGGQKVCYIEGHRVINLANEMFGYNGWAHSITQQNVDFVDLNNGKFYVGVCAFVRVQLKDGSYHEDVGYGVSEGLKSKALSLEKARKEAVTDGLKRALRSFGNALGNCILDKDYLRSLNKLPRQLPLEVDLTKAKRQDLEPSVEEARYNSCRPNMALGHPQLQQVTSPSRPSHAVIPADQDCSSRSLSSSAVESEATHQRKLRQKQLQQQFRERMEKQQVRVSTPSAEKSEAAPPAPPVTHSTPVTVSEPLLEKDFLAGVTQELIKTLEDNSEKWAVTPDAGDGVVKPSSRADPAQTSDTLALNNQMVTQNRTPHSVCHQKPQAKSGSWDLQTYSADQRTTGNWESHRKSQDMKKRKYDPS
notes: RAD52, human; The size of the oligomer is not measured here; heptamer is only cited
For B1, the binding result is “binds”.
